The values that follow come from patent US20190359693A1.

In this assay the target is hemagglutinin (HA) of influenza virus H3N? A/Env/MPJ193/09 (influenza A virus). The assay can be described thus: cell-based or functional assay.

B1: MD2407 (bispecific antibody)
chain: EVQLVESGGGLVQPGGSLRLSCAVSISIFDIYAMDWYRQAPGKQRDLVATSFRDGSTNYADSVKGRFTISRDNAKNTLYLQMNSLKPEDTAVYLCHVSLYRDPLGVAGGMGVYWGKGALVTVSSGGGGSGGGGSEVQLVESGGGLVQAGGSLKLSCAASGRTYAMGWFRQAPGKEREFVAHINALGTRTYYSDSVKGRFTISRDNAKNTEYLEMNNLKPEDTAVYYCTAQGQWRAAPVAVAAEYEFWGQGTQVTVSSGGGGSGGGGSEVQLVESGGGLVQPGGSLRLSCAATGFTLENKAIGWFRQTPGSEREGVLCISKSGSWTYYTDSMRGRFTISRDNAENTVYLQMDSLKPEDTAVYYCATTTAGGGLCWDGTTFSRLASSWGQGTQVTVSSGGGGSGGGGSEVQLVESGGGLVQPGGSLKLSCAASGFTFSTSWMYWLRQAPGKGLEWVSVINTDGGTYYADSVKDRFTISRDNAKDTLYLQMSSLKSEDTAVYYCAKDWGGPEPTRGQGTQVTVSS
B1 yielded an average neutralization titer of 24.5 nM.
